Consider two compounds from PMC11342271, “A high-throughput screening identifies MCM chromatin loading inhibitors targeting cells with increased replication origins” (iScience, 2024).

Some results are limits rather than exact numbers.

Data set [1] has as its target T1, recombinant Xenopus laevis CDC6 (rCDC6) (Xenopus laevis, UniProt P79946).
T1 construct: gene cdc6.S; full-length; GST fusion from pGEX-6P-1 in E. coli Rosetta (DE3); GST cleaved with HRV 3C protease; Resource S and Superdex 200 purified
T1 sequence (P79946 1-554): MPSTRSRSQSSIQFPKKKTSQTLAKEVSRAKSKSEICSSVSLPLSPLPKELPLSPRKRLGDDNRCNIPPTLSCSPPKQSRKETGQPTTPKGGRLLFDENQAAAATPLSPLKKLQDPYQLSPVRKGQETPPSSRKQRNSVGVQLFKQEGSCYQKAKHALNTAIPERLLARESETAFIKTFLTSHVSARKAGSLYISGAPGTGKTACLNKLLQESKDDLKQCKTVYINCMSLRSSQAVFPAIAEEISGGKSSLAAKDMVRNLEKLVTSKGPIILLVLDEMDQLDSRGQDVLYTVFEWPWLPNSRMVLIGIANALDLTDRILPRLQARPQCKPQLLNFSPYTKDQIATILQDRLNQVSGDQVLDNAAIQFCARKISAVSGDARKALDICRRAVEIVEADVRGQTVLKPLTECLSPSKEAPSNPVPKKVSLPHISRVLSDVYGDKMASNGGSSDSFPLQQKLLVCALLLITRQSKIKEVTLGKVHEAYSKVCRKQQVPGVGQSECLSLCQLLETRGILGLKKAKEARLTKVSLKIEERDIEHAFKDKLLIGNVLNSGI
Put plainly: isothermal titration calorimetry, one-site fit. The format is binding. The conditions noted are these: 25 °C; PBS, 10% glycerol, 1 mM MgCl2, 1 mM DTT, 1% DMSO; CDC6 74 μM (75 μM in methods) titrated with 1 mM compound.

In data set [2] the test system is MCM2-7 (detected via MCM7) (Xenopus laevis). In words: ELISA (MCM7) on immobilized DNA. The conditions noted are these: 5' biotin (BtnTg), Interphase Xenopus laevis egg extract (HSS; 2-fold diluted in ELISA), 30 min, room temperature (ELISA), wash buffer, salt and pH not given in the material. For orientation: An ELISA detects its analyte on a solid surface through an enzyme-linked reagent.

One may read the Kd as the concentration at which binding is half-saturated. Take `O=C1C(SCCO)=C(SCCO)C(=O)c2ccccc21` [NSC-95397, 2,3-bis(2-hydroxyethylsulfanyl) naphthalene-1,4-dione]: the Kd in data set [1] is 323 ± 269 nM.

In the case of bDNA (1.8 kb biotinylated DNA), the binding signal in data set [2] (+ 187 uM NSC-95397 (reduction at least 40%)), in data set [2] (+ 187 uM aminacrine (DNA intercalator; reduction at least 40%)) and in data set [2] (+ 187 uM ethacridine (DNA intercalator; reduction at least 40%)) was < 60 % of DMSO throughout.
